First the molecules themselves.
B1: TCR33 (TCR, V domains shown)
Valpha: AQSVTQLGSHVSVSEGALVLLRCNYSSSVPPYLFWYVQYPNQGLQLLLKYTSAATLVKGINGFEAEFKKSETSFHLTKPSAHMSDAAEYFCAVSDSSYKLIFGSGTRLLVRP
Vbeta: DAGVIQSPRHEVTEMGQEVTLRCKPISGHDYLFWYRQTMMRGLELLIYFNNNVPIDDSGMPEDRFSAKMPNASFSTLKIQPSEPRDSAVYFCASQSGDTQYFGPGTRLTVL
B2: TCR30 (TCR, V domains shown)
Valpha: EDKVVQSPLSLVVHEGDTVTLNCSYEVTNFRSLLWYKQEKKAPTFLFMLTSSGIEKKSGRLSSILDKKELFSILNITATQTGDSAVYLCAVVPDNTDKLIFGTGTRLQVFP
Vbeta: GAGVSQSPRYKVTKRGQDVALRCDPISGHVSLYWYRQALGQGPEFLTYFNYEAQQDKSGLPNDRFSAERPEGSISTLTIQRTEQRDSAMYRCASSWGGSNTGELFFGEGSRLTVL
B3: TCR29 (TCR, V domains shown)
Valpha: AQKVTQAQTEISVVEKEDVTLDCVYETRDTTYYLFWYKQPPSGELVFLIRRNSFDEQNEISGRYSWNFQKSTSSFNFTITASQVVDSAVYFCALSEAWGNAGNMLTFGGGTRLMVKP
Vbeta: GAGVSQSPRYKVTKRGQDVALRCDPISGHVSLYWYRQALGQGPEFLTYFNYEAQQDKSGLPNDRFSAERPEGSISTLTIQRTEQRDSAMYRCASSPGQQNTEAFFGQGTRLTVV
B4: TCR32 (TCR, V domains shown)
Valpha: ILNVEQSPQSLHVQEGDSTNFTCSFPSSNFYALHWYRWETAKSPEALFVMTLNGDEKKKGRISATLNTKEGYSYLYIKGSQPEDSATYLCAFIVHQAGTALIFGKGTTLSVSS
Vbeta: B3 Vbeta with P96L, Q98L, Q99L, N100Y, T101N, A103Q, Q107P, V114L
B5: TCR54 (TCR, V domains shown)
Valpha: EDQVTQSPEALRLQEGESSSLNCSYTVSGLRGLFWYRQDPGKGPEFLFTLYSAGEEKEKERLKATLTKKESFLHITAPKPEDSATYLCAVYNQAGTALIFGKGTTLSVSS
Vbeta: EAQVTQNPRYLITVTGKKLTVTCSQNMNHEYMSWYRQDPGLGLRQIYYSMNVEVTDKGDVPEGYKVSRKEKRNFPLILESPSPNQTSLYFCASSLYSTDTQYFGPGTRLTVL
B6: TCR2 (TCR, V domains shown)
Valpha: ILNVEQSPQSLHVQEGDSTNFTCSFPSSNFYALHWYRWETAKSPEALFVMTLNGDEKKKGRISATLNTKEGYSYLYIKGSQPEDSATYLCAFSNARLMFGDGTQLVVKP
Vbeta: DTAVSQTPKYLVTQMGNDKSIKCEQNLGHDTMYWYKQDSKKFLKIMFSYNNKELIINETVPNRFSPKSPDKAHLNLHINSLELGDSAVYFCASSQEAGTGSYNEQFFGPGTRLTVL
B7: TCR4 (TCR, V domains shown)
Valpha: AQSVAQPEDQVNVAEGNPLTVKCTYSVSGNPYLFWYVQYPNRGLQFLLKYITGDNLVKGSYGFEAEFNKSQTSFHLKKPSALVSDSALYFCAVRDAMGGSYIPTFGRGTSLIVHP
Vbeta: DGGITQSPKYLFRKEGQNVTLSCEQNLNHDAMYWYRQDPGQGLRLIYYSQIVNDFQKGDIAEGYSVSREKKESFPLTVTSAQKNPTAFYLCASSTGISEQFFGPGTRLTVL
B8: TCR346 (TCR)
alpha TRAV29DV5 TRAJ48 CDR3: CAARDISNFGNEKLTF
Vbeta: GAVVSQHPSRVICKSGTSVKIECRSLDFQATTMFWYRQFPKQSLMLMATSNEGSKATYEQGVEKDKFLINHASLTLSTLTVTSAHPEDSSFYICSARDHTSGTYEQYFGPGTRLTVT
B9: TCR18 (TCR, V domains shown)
Valpha: AQTVTQSQPEMSVQEAETVTLSCTYDTSESDYYLFWYKQPPSRQMILVIRQEAYKQQNATENRFSVNFQKAAKSFSLKISDSQLGDAAMYFCAYRDNFNKFYFGSGTKLNVKP
Vbeta: DSGVTQTPKHLITATGQRVTLRCSPRSGDLSVYWYQQSLDQGLQFLIQYYNGEERAKGNILERFSAQQFPDLHSELNLSSLELGDSALYFCASSGTGGAYNEQFFGPGTRLTVL
B10: TCR19 (TCR, V domains shown)
Valpha: AQKVTQAQTEISVVEKEDVTLDCVYETRDTTYYLFWYKQPPSGELVFLIRRNSFDEQNEISGRYSWNFQKSTSSFNFTITASQVVDSAVYFCALLSSGGYNKLIFGAGTRLAVHP
Vbeta: NAGVTQTPKFQVLKTGQSMTLQCAQDMNHEYMSWYRQDPGMGLRLIHYSVGAGITDQGEVPNGYNVSRSTTEDFPLRLLSAAPSQTSVYFCASSYLSPAAGFSYEQYFGPGTRLTVT
B11: TCR22 (TCR, V domains shown)
Valpha: AQSVAQPEDQVNVAEGNPLTVKCTYSVSGNPYLFWYVQYPNRGLQFLLKYITGDNLVKGSYGFEAEFNKSQTSFHLKKPSALVSDSALYFCAVRDDNAGNMLTFGGGTRLMVKP
Vbeta: DTGVSQNPRHKITKRGQNVTFRCDPISEHNRLYWYRQTLGQGPEFLTYFQNEAQLEKSRLLSDRFSAERPKGSFSTLEIQRTEQGDSAMYLCASSLANTGELFFGEGSRLTVL
B12: TCR23 (TCR, V domains shown)
Valpha: LAKTTQPISMDSYEGQEVNITCSHNNIATNDYITWYQQFPSQGPRFIIQGYKTKVTNEVASLFIPADRKSSTLSLPRVSLSDTAVYYCLVGDIPSVDGGFKTIFGAGTRLFVKA
Vbeta: EAQVTQNPRYLITVTGKKLTVTCSQNMNHEYMSWYRQDPGLGLRQIYYSMNVEVTDKGDVPEGYKVSRKEKRNFPLILESPSPNQTSLYFCASSTSLELDQPQHFGDGTRLSIL
B13: TCR26 (TCR, V domains shown)
Valpha: GENVEQHPSTLSVQEGDSAVIKCTYSDSASNYFPWYKQELGKRPQLIIDIRSNVGEKKDQRIAVTLNKTAKHFSLHITETQPEDSAVYFCAASSLREGYSTLTFGKGTMLLVSP
Vbeta: NAGVTQTPKFRVLKTGQSMTLLCAQDMNHEYMYWYRQDPGMGLRLIHYSVGEGTTAKGEVPDGYNVSRLKKQNFLLGLESAAPSQTSVYFCASSSTDLNEQFFGPGTRLTVL
B14: TCR28 (TCR, V domains shown)
Valpha: AQKITQTQPGMFVQEKEAVTLDCTYDTSDQSYGLFWYKQPSSGEMIFLIYQGSYDEQNATEGRYSLNFQKARKSANLVISASQLGDSAMYFCAMRGDPQGAQKLVFGQGTRLTINP
Vbeta: ETGVTQTPRHLVMGMTNKKSLKCEQHLGHNAMYWYKQSAKKPLELMFVYSLEERVENNSVPSRFSPECPNSSHLFLHLHTLQPEDSALYLCASSQGRGKNIQYFGAGTRLSVL

Where a chain is given by its changes, count along the chain named.

One assay has as its target T1, CT 83 peptide on HLA-B*44:02 (human).
T1 peptide: GEMSSNSTAL
As to the kind of experiment: multimer staining.
For the molecule B1, the binding result is recorded as “recognises”.
As for B2, the binding result is given as “recognises”.
As to B3, the binding result was “recognises”.
For B4, the binding result is listed as “recognises”.

For another assay, the target named is T2, MAGE A3 peptide on HLA-A*01:01 (human).
T2 peptide: EVDPIGHLY
The assay is described as follows: multimer staining.
For the molecule B5, the binding result is “recognises”.
As to B6, the binding result is listed as “recognises”.
Regarding B7, the binding result was “recognises”.
In the case of B8, the binding result is given as “recognises”.

The next assay concerns the target T3, CT 83 peptide on HLA-A*02:01 (human).
T3 peptide: LLASSILCA
As to the kind of experiment: multimer staining.
For B9, the binding result is “recognises”.
Still for that read-out and setting: then B10, with “recognises”; and B11, with “recognises”; and B12, with “recognises”.

The target in the next assay is T4, MAGE B2 peptide on HLA-A*02:01 (human).
T4 peptide: GVYDGEEHSV
As to the kind of experiment: multimer staining.
For the molecule B13, the binding result is on record as “recognises”.
On to B14, for which the binding result is “recognises”.

The values above are taken from patent US20230382997A1 (published 2023).
